The record followed here is US20100016697.

Data set [1] deals with LTBP-1 fluorogenic peptide SCJJ-1.
In data set [2] the test system is MT1-MMP specific fluorogenic substrate MCA-Pro-Leu-Ala-Cys(p-OmeBz)-Trp-Ala-Arg(Dpa)-NH2.

Chain of MMP-2 catalytic domain (part of the MMP-2/-9 catalytic domain cocktail) (chain, as listed by the source): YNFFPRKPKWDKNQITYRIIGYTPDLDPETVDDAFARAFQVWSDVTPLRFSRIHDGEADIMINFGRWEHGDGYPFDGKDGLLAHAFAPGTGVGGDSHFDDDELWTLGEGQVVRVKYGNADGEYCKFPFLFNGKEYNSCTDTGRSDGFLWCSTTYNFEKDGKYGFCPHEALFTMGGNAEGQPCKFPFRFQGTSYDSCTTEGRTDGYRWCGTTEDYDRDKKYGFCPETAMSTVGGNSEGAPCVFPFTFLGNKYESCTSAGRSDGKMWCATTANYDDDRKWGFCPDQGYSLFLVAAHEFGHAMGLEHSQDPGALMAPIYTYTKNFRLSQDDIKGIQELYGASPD
Chain of MMP-9 catalytic domain (part of the MMP-2/-9 catalytic domain cocktail) (chain, as listed by the source): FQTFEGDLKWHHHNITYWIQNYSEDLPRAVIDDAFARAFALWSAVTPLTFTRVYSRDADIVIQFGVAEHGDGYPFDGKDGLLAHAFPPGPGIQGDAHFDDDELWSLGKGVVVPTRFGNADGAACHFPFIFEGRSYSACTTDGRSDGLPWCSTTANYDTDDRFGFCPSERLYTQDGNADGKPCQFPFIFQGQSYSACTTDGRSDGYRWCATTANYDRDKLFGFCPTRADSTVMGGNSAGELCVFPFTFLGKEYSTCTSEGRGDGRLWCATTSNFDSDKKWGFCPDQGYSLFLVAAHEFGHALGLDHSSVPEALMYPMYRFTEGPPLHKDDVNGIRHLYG
Chain of MMP-9 (part of MMP-2/9, Chemicon) (chain, as listed by the source): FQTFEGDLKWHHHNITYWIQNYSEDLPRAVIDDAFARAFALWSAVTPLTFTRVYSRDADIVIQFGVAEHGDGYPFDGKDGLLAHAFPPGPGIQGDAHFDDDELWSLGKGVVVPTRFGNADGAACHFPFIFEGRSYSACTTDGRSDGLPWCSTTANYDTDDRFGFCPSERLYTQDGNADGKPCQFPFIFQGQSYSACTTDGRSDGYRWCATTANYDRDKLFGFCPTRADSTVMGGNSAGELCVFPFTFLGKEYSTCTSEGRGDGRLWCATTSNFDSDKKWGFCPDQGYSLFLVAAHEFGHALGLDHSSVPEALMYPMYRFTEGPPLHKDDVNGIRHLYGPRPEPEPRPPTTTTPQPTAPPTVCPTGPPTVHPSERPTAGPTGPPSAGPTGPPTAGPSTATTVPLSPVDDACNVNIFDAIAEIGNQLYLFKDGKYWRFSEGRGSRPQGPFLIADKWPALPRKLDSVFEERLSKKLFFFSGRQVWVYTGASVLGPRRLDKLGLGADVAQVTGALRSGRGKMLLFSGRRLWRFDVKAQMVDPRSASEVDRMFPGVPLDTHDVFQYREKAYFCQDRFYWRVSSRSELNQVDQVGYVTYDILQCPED
Chain of MMP-8 (Calbiochem) (chain, as listed by the source): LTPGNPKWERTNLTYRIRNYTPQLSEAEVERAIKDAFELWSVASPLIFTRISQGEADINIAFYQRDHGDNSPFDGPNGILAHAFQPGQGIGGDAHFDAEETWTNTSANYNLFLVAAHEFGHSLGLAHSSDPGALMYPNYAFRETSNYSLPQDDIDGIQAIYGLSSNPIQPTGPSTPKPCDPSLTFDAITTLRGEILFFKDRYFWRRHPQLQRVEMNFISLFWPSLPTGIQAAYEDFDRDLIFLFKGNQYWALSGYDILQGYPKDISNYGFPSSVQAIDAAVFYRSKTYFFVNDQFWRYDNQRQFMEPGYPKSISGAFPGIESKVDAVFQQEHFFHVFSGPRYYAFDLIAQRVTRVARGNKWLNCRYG

On to “MMP-2 catalytic domain (part of the MMP-2/-9 catalytic domain cocktail)”, for which, in data set [1], the “fluorescent emission from the LTBP-1 substrate” value is reported as “Incubation with an MMP-2/-9 catalytic domain cocktail (10 ug/mL) caused no fluorescent emission from the LTBP-1 substrate”.

MMP-9 (part of MMP-2/9, Chemicon): in data set [2], the “fluorescence emission (cleavage of the quenched fluorogenic substrate)” value is “Incubation with MMP-2/9, MMP-8, or ADAM-10 and 17 alone failed to cause fluorescence emission from the MT1-MMP substrate”.

For “MMP-9 catalytic domain (part of the MMP-2/-9 catalytic domain cocktail)”, the “fluorescent emission from the LTBP-1 substrate” value in data set [1] was “Incubation with an MMP-2/-9 catalytic domain cocktail (10 ug/mL) caused no fluorescent emission from the LTBP-1 substrate”.

In the case of MMP-8 (Calbiochem), the “fluorescence emission (cleavage of the quenched fluorogenic substrate)” value in data set [2] was “Incubation with MMP-2/9, MMP-8, or ADAM-10 and 17 alone failed to cause fluorescence emission from the MT1-MMP substrate”.
